Laboratory results as given in patent US7341836B2, “Modified cyclic nucleotide gated ion channels” (The Regents of the University of Colorado, priority 2001, dated 2008).
Where a chain is given by its changes, count along the chain named. Numbers in names are those of the source.

Tests used:
[1] = tested on: PDE activity in GH4C1 cells; assay: Effect of PDE inhibitors, forskolin and VIP on cAMP levels (Ca2+ influx through CNG channels); type: cell-based, rat; settings: C460W/E583M channels
Protocol: To further test the utility of this approach, PDE activity in excitable GH4C1 pituitary cells was examined. In all of the experiments shown (See, FIGS. 13-14, and Table 2), 1 μM nimodipine was added at time zero to block Ca^2+ influx though voltage-gated Ca^2+ channels (triggered by membrane depolarization due to Ca^2+ and Na^+ influx through CNG channels). […] FIGS. 13 and 14 each depict experiments done on a single batch of cells. As before, similar results were obtained on three other batches. In the experiments that produced the data shown in Table 2, cAMP concentrations were monitored using Ca^2+ influx through C460W/E583M channels. […] Either 100 μM IBMX or vehicle (-IBMX; control) were added at time zero. Then, 50 μM forskolin were added at 180 seconds d(ΔF/F0)/dt, which is proportional to the Ca^2+ influx rate, was estimated as described in the Examples. Data are provided as mean±standard error. IBMX or vehicle was added at 60 seconds (first arrow in FIG. 13). Either 10 μM forskolin or 100 nM VIP were added at 240 seconds (second arrow in FIG. 13). In the absence of IBMX, large forskolin or VIP-induced increases in Ca^2+ influx were observed. […] This level of basal AC activity was quite different from that observed in HEK-293 cells (See, FIGS. 9 and 10). 1 μM nimodipine was added at time 0 to block endogenous voltage-gated Ca^2+ channels.
To identify the PDE family or families that regulate the local cAMP concentration in GH4C1 cells, cAMP accumulation was monitored in the presence and absence of PDE inhibitors (See, Table 2). Again, the high cAMP affinity C460W/E583M channels were used. PDE inhibitors were added at 60 s. Although the addition of IBMX alone triggered Ca^2+ influx, 10 μM forskolin were added at 240 s as a positive control for CNG channel activity. […] This PDE is likely to have a low Km for cAMP because it is capable of regulating cAMP at concentrations too low for the WT or Δ61-90/C460W/E583M channels to detect. Thus, it is contemplated that a Ca^2+-CaM stimulated PDE (type I) is primarily responsible for controlling basal cAMP signals in GH4C1 cells.
In addition, PDE activity was monitored using Δ61-90/C460W/E583M channels to detect changes in cAMP concentration (See, FIG. 14). PDE inhibitors and forskolin were added as described above. With this construct, it was not possible to observe changes in cAMP concentration due to inhibition of PDE activity alone. […] Inhibitors specific to other PDE types had no effect on the forskolin-induced Ca^2+ influx (data not shown). […] It is contemplated that Ca^2+ influx through the C460W/E583M channels was saturated at cAMP concentrations below the Km for this PDE. Thus, it is contemplated that there are two different PDE types that regulate local cAMP signals in GH4C1 cells: a low Km, 8-methoxymethyl-IBMX sensitive PDE (type I); and a high Km, RO-20-1724-, rolipram-sensitive PDE (type IV).
GH4C1 rat pituitary cells (ATCC) were maintained in 13 mL Ham's F-10 medium (Life Technologies) supplemented with 14.3 mM NaHCO3, 15% donor horse serum (Gemini), and 2.5% fetal bovine serum, pH 6.8, in 75 cm^2 flasks at 37° C. in a humidified atmosphere of 95% air and 5% CO2. Cells were split weekly (1:4) and washed with fresh medium twice weekly. Cells were plated at ˜60% confluence in 100 mm culture dishes twenty-four hours prior to infection with the CNG-channel-encoding adenovirus constructs (multiplicity of infection=50 plaque forming units per cell). Forty-eight hours post-infection cells were detached, resuspended in serum-containing medium, and assayed within 12 hours.
In this Example, experiments conducted to examine the response of excitable GH4C1 pituitary cells to stimulation by either forskolin or the hormone vasoactive intestinal peptide (VIP), in the presence of absence of PDE inhibitors are described. […]

[2] = tested on: PDE III; settings: cited from earlier work
[3] = tested on: HEK-293 cells expressing CNG channels; assay: Forskolin-induced cAMP accumulation monitored by Ca2+ influx (fura-2) through expressed CNG channels; type: cell-based, human
Protocol: Next, experiments were conducted to assess the ability of each channel construct to detect increases in local cAMP concentration. Changes in cAMP concentration were detected using fura-2 to monitor Ca^2+ influx through CNG channels, as described in the Examples. Ca^2+ influx induced by different concentrations of forskolin, an AC activator, in the presence of 100 μM IBMX, a nonselective PDE inhibitor was measured. This approach allowed comparisons to be made between the cAMP sensitivities of the different channels to changes in cAMP, regardless of variations in expression levels between experiments. In HEK-293 cells expressing the WT channel, addition of forskolin was followed by a brief delay and an increase in Ca^2+ influx (See, FIG. 7, Panel A). The delay decreased and the rate of Ca^2+ influx increased in a dose-dependent manner. Neither effect was saturated at 50 μM forskolin. In cells expressing the E583M channel, addition of forskolin was also followed by a brief delay and an increase in Ca^2+ influx (FIG. 7, Panel B). As with the WT channel, the delay and the initial rate of Ca^2+ influx were dose-dependent. […] In cells expressing the Δ61-90/C460W/E583M channel, addition of forskolin caused similar increases in Ca^2+ influx as the E583M channel, including saturation of the delay and rate of influx at 20 μM (compare FIG. 7, Panel B with FIG. 7, Panel D). The increased response of the modified channels to forskolin treatment is consistent with the apparent cAMP affinities measured in excised patches in the absence of Ca^2+-CaM (C460W/E583M>E583M˜Δ61-90/C460W/E583>WT channels). There are several factors that may have contributed to the apparent lack of a Ca^2+-CaM effect on the channels.
Briefly, HEK-293 were maintained in MEM (Life Technologies Inc.) supplemented with 26.2 mM NaHCO3, 10% (v/v) fetal bovine serum (Gemini), penicillin (50 μg/mL), and streptomycin ([…]), pH 7.0, at 37° C. in a humidified atmosphere of 95% air and 5% CO2. Cells were plated at ˜60% confluence in 100 mm culture dishes twenty-four hours prior to infection with the CNG-channel-encoding adenovirus constructs (multiplicity of infection=10 plaque forming units per cell). […] Twenty-four hours post-infection cells were detached with phosphate-buffered saline containing 0.03% EDTA, resuspended in serum-containing medium, and assayed within 12 hours.

[4] = tested on: rat olfactory CNG channel α subunit; assay: Excised inside-out patch recordings, cyclic nucleotide dose-response of CNG channel constructs; type: biochemical; settings: for Imax^cGMP/Imax^cAMP: current at saturating cGMP divided by current at saturating cAMP
Protocol: As described in greater detail herein, the effects of modifications to CNG channels were assessed using the Hill equation, I/Imax=[cNMP]^N/([cNMP]^N+K1/2^N), where I/Imax is the fraction of maximal current, cNMP represents cyclic nucleotide, K1/2 is the concentration that gives half-maximal current, and N is the Hill coefficient, an index of cooperativity. I/Imax^cGMP/Imax^cAMP is the current induced by saturating cGMP divided by the current induced by saturating cAMP. Data (mean±standard deviation of three experiments) were obtained from excised membrane patches using standard patch clamp techniques.
To assess the cyclic nucleotide sensitivity of different CNG channel constructs, excised, inside-out patch recordings were made at room temperature (20-21° C.) using an Axopatch-200A patch clamp amplifier (Axon Instruments Inc.). Pipettes were pulled from borosilicate glass and heat polished. Pipettes were lowered onto the cells and gigaohm seals were formed. Patches were excised by shearing cells from the pipette with a jet of liquid. Ionic currents were elicited by 250 ms pulses to membrane potentials of +50 and −50 mV from a holding potential of 0 mV. Current records were sampled at five times the filter setting and stored on an IBM compatible computer. Records were corrected for errors due to series resistance (pipette resistance was 4.1 ±0.1 MΩ). Both the pipette and bath solutions contained (mM): 130 NaCl, 2 HEPES, 0.02 EDTA, and 1 EGTA, pH 7.6. Cyclic nucleotide-induced currents were obtained from the difference between currents in the presence and absence of cyclic nucleotides. Dose response curves for cAMP and cGMP were obtained at +50 and −50 mV in the same patch. The effects of the modifications were assessed using the Hill equation, I/Imax=[cNMP]^N/([cNMP]^N+K1/2^N), where I/Imax is the fraction of maximal current, cNMP represents cyclic nucleotide, K1/2 is the concentration that gives half-maximal current, and N is the Hill coefficient, an index of cooperativity. K1/2 and N for cAMP were 36±5 μM, 10±2 μM, 1.0±0.3 μM, and […] for WT, E583M, C460/E583M, and Δ61-90/C460W/E583M channels, respectively (See, Rich et al., J. Gen. Physiol. [2001], supra).
The cyclic nucleotide sensitivity of the C460W/E583M CNG channel was assessed in excised, inside-out patches as known in the art (See, Rich et al. [2001], supra). K1/2 and N were 1.1±0.3 μM and 2.1±0.4 at +50 mV; and 1.0±0.3 μM and 2.0 ±0.3 at −50 mV (n=11). With these values, the cAMP concentration could be calculated from currents measured in perforated patch experiments (Rich et al. Proc. Natl. Acad. Sci. [2001], supra).

C[C@@H]1C(=O)NC2=Nc3cccc(Cl)c3CN21 [Quazinone]
d(ΔF/F0)/dt ([1]; basal cAMP, inhibitor concentration (μM)): 0 s⁻¹ | IC50 [2]: 0.6 µM

C=C[C@@]1(C)CC(=O)[C@]2(O)[C@@]3(C)[C@@H](O)CCC(C)(C)[C@@H]3[C@H](O)[C@H](OC(C)=O)[C@@]2(C)O1 [forskolin]
forskolin-induced increase in cAMP concentration averaged throughout the accessible cell volume [3]: 1 to 2 µM | forskolin-induced increase in cAMP concentration measured using CNG channels ([3]; local, near plasma membrane): > 25 µM

vasoactive intestinal peptide [VIP]
cAMP accumulation and Ca2+ influx after AC stimulation ([1]; 10 μM forskolin or 100 nM VIP after IBMX or vehicle): caused additional cAMP accumulation and Ca^2+ influx

B1: E583M: modified rat olfactory cyclic nucleotide-gated ion channel containing the E583M mutation, SEQ ID NO:5 (protein, listed as Rattus norvegicus)
chain: MMTEKSNGVKSSPANNHNHHPPPSIKANGKDDHRAGSRPQSVAADDDTSPELQRLAEMDTPRRGRGGFQRIVRLVGVIRDWANKNFREEEPRPDSFLERFRGPELQTVTTHQGDDKGGKDGEGKGTKKKFELFVLDPAGDWYYRWLFVIAMPVLYNWCLLVARACFSDLQRNYFVVWLVLDYFSDTVYIADLIIRLRTGFLEQGLLVKDPKKLRDNYIHTLQFKLDVASIIPTDLIYFAVGIHSPEVRFNRLLHFARMFEFFDRTETRTSYPNIFRISNLVLYILVIIHWNACIYYVISKSIGFGVDTWVYPNITDPEYGYLAREYIYCLYWSTLTLTTIGETPPPVKDEEYLFVIFDFLIGVLIFATIVGNVGSMISNMNATRAEFQAKIDAVKHYMQFRKVSKDMEAKVIKWFDYLWTNKKTVDEREVLKNLPAKLRAEIAINVHLSTLKKVRIFQDCEAGLLVELVLKLRPQVFSPGDYICRKGDIGKEMYIIKEGKLAVVADDGVTQYALLSAGSCFGEISILNIKGSKMGNRRTANIRSLGYSDLFCLSKDDLMEAVTEYPDAKKVLEERGREILMKMGLLDENEVAASMEVDVQEKLEQLETNMDTLYTRFARLLAEYTGAQQKLKQRITVLETKMKQNHEDDYLSDGINTPEPTAAE
Imax^cGMP/Imax^cAMP ([4]; +50 mV): 0.40 ± 0.10 | Imax^cGMP/Imax^cAMP ([4]; −50 mV): 0.35 ± 0.16 | current elicited by saturating cGMP as % of the current elicited by saturating cAMP ([4]; excised patches): ~40% | forskolin concentration at which delay and rate of Ca2+ influx saturated ([3]; 100 μM IBMX, forskolin 0-50 μM): 20 µM

B2: WT: wild-type rat olfactory cyclic nucleotide gated channel α subunit, amino acid sequence SEQ ID NO:8 (protein, listed as Rattus norvegicus)
chain: B1 chain with M583E
Imax^cGMP/Imax^cAMP ([4]; +50 mV): 1.0 | Imax^cGMP/Imax^cAMP ([4]; −50 mV): 1.0
